T1: hGP130-his (Sino Biological, Catalog #10974) (human, UniProt P40189 23-619)
T1 construct: Bought his-tagged cytokine receptor used as SPR analyte; also called human gp130 receptor subunit; IL6 receptor beta subunit; not shown: his tag
T1 sequence: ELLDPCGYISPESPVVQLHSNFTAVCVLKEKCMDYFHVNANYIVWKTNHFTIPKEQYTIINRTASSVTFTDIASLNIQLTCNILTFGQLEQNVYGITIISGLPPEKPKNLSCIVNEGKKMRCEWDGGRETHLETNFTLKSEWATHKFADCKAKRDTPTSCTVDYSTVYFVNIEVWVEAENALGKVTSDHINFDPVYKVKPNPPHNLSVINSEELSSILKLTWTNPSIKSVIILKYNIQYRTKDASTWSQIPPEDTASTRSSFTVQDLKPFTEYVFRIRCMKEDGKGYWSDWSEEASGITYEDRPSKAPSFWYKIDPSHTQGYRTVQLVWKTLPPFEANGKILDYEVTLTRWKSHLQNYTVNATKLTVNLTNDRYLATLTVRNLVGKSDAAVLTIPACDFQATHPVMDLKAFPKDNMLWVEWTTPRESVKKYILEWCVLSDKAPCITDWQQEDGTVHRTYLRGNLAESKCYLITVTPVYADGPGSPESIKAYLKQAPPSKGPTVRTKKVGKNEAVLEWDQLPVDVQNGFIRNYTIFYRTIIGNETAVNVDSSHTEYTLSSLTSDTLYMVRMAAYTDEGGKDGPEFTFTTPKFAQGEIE

T2: hIL27Ra-his (Origene, Catalog #TP307012) (human, UniProt Q6UWB1 33-516, limits assumed)
T2 construct: Bought his-tagged cytokine receptor used as SPR analyte; also called human IL27 receptor subunit alpha; not shown: his tag
T2 sequence: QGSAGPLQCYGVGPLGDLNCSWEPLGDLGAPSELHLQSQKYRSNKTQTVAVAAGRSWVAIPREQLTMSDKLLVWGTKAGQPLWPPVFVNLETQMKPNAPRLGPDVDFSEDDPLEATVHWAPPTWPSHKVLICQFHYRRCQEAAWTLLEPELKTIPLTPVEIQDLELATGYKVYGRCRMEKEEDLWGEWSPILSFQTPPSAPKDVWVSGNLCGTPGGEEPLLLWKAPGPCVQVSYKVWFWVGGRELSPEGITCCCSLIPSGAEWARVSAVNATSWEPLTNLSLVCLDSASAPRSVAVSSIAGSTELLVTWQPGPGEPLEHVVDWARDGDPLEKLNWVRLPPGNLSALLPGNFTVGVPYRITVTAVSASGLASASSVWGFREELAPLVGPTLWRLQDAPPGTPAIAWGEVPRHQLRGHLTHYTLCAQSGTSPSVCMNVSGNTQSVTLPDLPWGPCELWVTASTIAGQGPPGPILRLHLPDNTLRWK


Tests used:
[1] = target: T1, hGP130-his (Sino Biological, Catalog …); assay: SPR Biacore T200; mono-Fc VHH on Protein A chip, hGP130-his analyte
Method: (§1) All experiments were conducted in 10 mM Hepes, 150 mMv NaCl, 0.05% (v/v) Polysorbate 20 (PS20) and 3 mMv EDTA (HBS-EP+ buffer) on a Biacore® T200 instrument equipped with a Protein A chip (Cytiva). Mono-Fc VHH ligands were flowed at 5 μl/min for variable time ranging from 18 to 300 seconds, reaching the capture loads listed in the tables below.
(§2) Following ligand capture, injections of a 2-fold dilution series of his-tagged cytokine receptors typically comprising at least five concentrations between 1 μM and 1 nM were performed in either high performance or single cycle kinetics mode. Surface regeneration was achieved by flowing 10 mMv glycine-HCl, pH 1.5 (60 seconds, 50 μL/min). Buffer-subtracted sensograms were processed with Biacore® T200 Evaluation Software and globally fit with a 1:1 Langmuir binding model (bulk shift set to zero) to extract kinetics and affinity constants (ka, kd, KD). RMAX<100 RU indicates surface density compatible with kinetics analysis. Calculated Rmax were generated using the equation Rmax=Load (RU)×valency of ligand×(Molecular weight of analyte/Molecular weight of ligand. Surface activity was defined as the ratio experimental/calculated Rmax. See tables below for sample information and experimental results.

[2] = target: T1, hGP130-his (Sino Biological, Catalog …); assay: SPR Biacore T200, hgp130 arm
Method: as §1, §2

[3] = target: T1, hGP130-his (Sino Biological, Catalog …); assay: SPR Biacore T200; ratio experimental/calculated Rmax
Method: as §1, §2

[4] = target: T2, hIL27Ra-his (Origene, Catalog #TP307012); assay: SPR Biacore T200, hIL27Ra arm
[5] = target: T2, hIL27Ra-his (Origene, Catalog #TP307012); assay: SPR Biacore T200; mono-Fc VHH on Protein A chip, hIL27Ra-his analyte
Method: as §1, §2

[6] = target: T2, hIL27Ra-his (Origene, Catalog #TP307012); assay: SPR Biacore T200; ratio experimental/calculated Rmax
Method: as §1, §2

| Kd [1] [nM] | koff [1] [s⁻¹] | kon [1] [M⁻¹ s⁻¹] | Kd [2] [nM] | koff [2] [s⁻¹] | kon [2] [M⁻¹ s⁻¹] | Surface Activity [3] [%] | Kd [4] [nM] | koff [4] [s⁻¹] | kon [4] [M⁻¹ s⁻¹] | Kd [5] [nM] | koff [5] [s⁻¹] | kon [5] [M⁻¹ s⁻¹] | Surface Activity [6] [%] | Binder |
| --- | --- | --- | --- | --- | --- | --- | --- | --- | --- | --- | --- | --- | --- | --- |
| 41 | 0.0073 | 180000 | 41 | 0.0073 | 180000 | 33 |  |  |  |  |  |  |  | 18-DR595 (SEQ ID NO. 236), anti-hGP130 Mono-Fc VHH (Fc fusion, Mono-Fc VHH ligand captured on a Protein A chip; not shown: mono-Fc part) QVQLQESGGGSVQAGGSLTLSCAASEYAYSTCNMGWYRQAPGKERELVSAFISDGSTYYADSVKGRFTITRDNAKNTVYLQMNSLKPEDTAIYYCSANCYRRLRNYWGQGTQVTVSS |
|  |  |  |  |  |  |  | 5.2 | 0.00076 | 150000 |  |  |  |  | hIL27Ra_VHH19 (VHH) VHH: QVQLQESGGGSVQAGGSLRLSCRASGSTYSNYCLGWFRQITGKEREGVAVINWVGGMLYFADSVKGRFTVSQDQAKNTVYLQMNSLKPEDTAMYYCAAESVSSFSCGGWLTRPDRVPYWGQGTQVTVSS |
|  |  |  |  |  |  |  |  |  |  | 5.2 | 0.00076 | 150000 | 20 | 25-DR602 (SEQ ID NO. 250), anti-hIL27Ra Mono-Fc VHH (Fc fusion, Mono-Fc VHH ligand captured on a Protein A chip; not shown: mono-Fc part) QVQLQESGGGSVQAGGSLRLSCRASGSTYSNYCLGWFRQITGKEREGVAVINWVGGMLYFADSVKGRFTVSQDQAKNTVYLQMNSLKPEDTAMYYCAAESVSSFSCGGWLTRPDRVPYWGQGTQVTVSS |
| 38 | 0.0059 | 160000 | 38 | 0.0059 | 160000 | 33 |  |  |  |  |  |  |  | 15-DR592 (SEQ ID NO. 233), anti-hGP130 Mono-Fc VHH (Fc fusion, Mono-Fc VHH ligand captured on a Protein A chip; not shown: mono-Fc part) QVQLQESGGGSVQAGGSLRLSCTAPGFTSNSCGMDWYRQAPGKEREFVSSISTDGTTGYADSVKGRFTISKDKAKDTVYLQMNSLKPEDTGMYSCKTKDGTIATMELCDFGYWGQGTQVTVSS |
| 82 | 0.021 | 250000 | 82 | 0.021 | 250000 | 20 |  |  |  |  |  |  |  | 16-DR593 (SEQ ID NO. 234), anti-hGP130 Mono-Fc VHH (Fc fusion, Mono-Fc VHH ligand captured on a Protein A chip; not shown: mono-Fc part) QVQLQESGGGSVQAGGSLRLSCAASGYPYSNGYMGWFRQAPGKEREGVATIYTGDGRTYYADSVKGRFTISRDNAKNTVDLQMSSLKPEDTAMYYCAARAAPLYSSGSPLTRARYNVWGQGTQVTVSS |
| 58 | 0.0095 | 160000 | 58 | 0.0095 | 160000 | 21 |  |  |  |  |  |  |  | 17-DR594 (SEQ ID NO. 235), anti-hGP130 Mono-Fc VHH (Fc fusion, Mono-Fc VHH ligand captured on a Protein A chip; not shown: mono-Fc part) QVQLQESGGGSVQAGGSLRLSCVASASTYCTYDMHWYRQAPGKGREFVSAIDSDGTTRYADSVKGRFTISQGTAKNTVYLQMNSLQPEDTAMYYCKTVCVVGSRWSDYWGQGTQVTVSS |
|  |  |  |  |  |  |  | 19 | 0.00057 | 30000 |  |  |  |  | hIL27Ra_VHH1 (VHH) VHH: QVQLQESGGGLVQPGGSLRLSCAASGFTFSSYPMSWVRQAPGKGLEWISTISAGGDTTLYADSVKGRFTSSRDNAKNTLYLQLNSLKTEDAAIYYCAKRIDCNSGYCYRRNYWGQGTQVTVSS |
|  |  |  |  |  |  |  |  |  |  | 19 | 0.00057 | 30000 | 4 | 20-DR597 (SEQ ID NO. 245), anti-hIL27Ra Mono-Fc VHH (Fc fusion, Mono-Fc VHH ligand captured on a Protein A chip; not shown: mono-Fc part) QVQLQESGGGLVQPGGSLRLSCAASGFTFSSYPMSWVRQAPGKGLEWISTISAGGDTTLYADSVKGRFTSSRDNAKNTLYLQLNSLKTEDAAIYYCAKRIDCNSGYCYRRNYWGQGTQVTVSS |
|  |  |  |  |  |  |  | 4.5 | 0.00041 | 91000 |  |  |  |  | hIL27Ra_VHH9 (VHH) VHH: QVQLQESGGGSVQSGGSLRLSCAASGFTYSTSNSWMAWFRQAPGKEREGVAAIYTVGGSIFYADSVRGRFTISQDATKNMFYLQMNTLKPEDTAMYYCAAASGRLRGKWFWPYEYNYWGQGTQVTVSS |
|  |  |  |  |  |  |  |  |  |  | 17 | 0.001 | 59000 | 13 | 23-DR600 (SEQ ID NO. 248), anti-hIL27Ra Mono-Fc VHH (Fc fusion, Mono-Fc VHH ligand captured on a Protein A chip; not shown: mono-Fc part) QVQLQESGGGSVQSGGSLRLSCAASGFTYSTSNSWMAWFRQAPGKEREGVAAIYTVGGSIFYADSVRGRFTISQDATKNMFYLQMNTLKPEDTAMYYCAAASGRLRGKWFWPYEYNYWGQGTQVTVSS |
|  |  |  |  |  |  |  | 6.1 | 0.00077 | 130000 |  |  |  |  | hIL27Ra_VHH21 (VHH) VHH: QVQLQESGGGLVQPGGSLRLSCAASGFTFSLSSMSWVRQAPGKGLEWVSAISSGGASTYYTDSVKGRFTISRDNAKNMLYLQLNSLKTEDTAMYYCAKGGSGYGDASRMTSPGSQGTQVTVSS |
|  |  |  |  |  |  |  |  |  |  | 6.1 | 0.00077 | 130000 | 18 | 26-DR603 (SEQ ID NO. 251), anti-hIL27Ra Mono-Fc VHH (Fc fusion, Mono-Fc VHH ligand captured on a Protein A chip; not shown: mono-Fc part) QVQLQESGGGLVQPGGSLRLSCAASGFTFSLSSMSWVRQAPGKGLEWVSAISSGGASTYYTDSVKGRFTISRDNAKNMLYLQLNSLKTEDTAMYYCAKGGSGYGDASRMTSPGSQGTQVTVSS |
| 33 | 0.0019 | 59000 | 33 | 0.0019 | 59000 | 21 |  |  |  |  |  |  |  | 14-DR591 (SEQ ID NO. 232), anti-hGP130 Mono-Fc VHH (Fc fusion, Tested as Mono-Fc VHH ligand captured on a Protein A chip; not shown: mono-Fc part) QVQLQESGGGSVQAGGSLRLSCTASGAIASGYIDSRWCMAWFRQAPGKEREGVAAIWPGGGLTVYADSVKGRFTISRDHAKNTLYLQMNNLKPEDTAMYYCAAGSPRMCPSLEFGFDYWGQGTQVTVSS |
| 44 | 0.0082 | 190000 | 44 | 0.0082 | 190000 | 28 |  |  |  |  |  |  |  | 19-DR596 (SEQ ID NO. 237), anti-hGP130 Mono-Fc VHH (Fc fusion, Mono-Fc VHH ligand captured on a Protein A chip; not shown: mono-Fc part) QVQLQESGGGLVQPGGSLRLSCTASGLTFDDSVMGWFRQAPGKGREAVSCISSSGANAFYADSVKGRFTISRDNAKNTLYLQMNSLKPEDTATYYCKRGHACAGYYPIPYDDYWGQGTQVTVSS |
|  |  |  |  |  |  |  | 17 | 0.001 | 59000 |  |  |  |  | hIL27Ra_VHH15 (VHH) VHH: QVQLQESGGGSVQAGGSLRLSCVASGYVSCDYFLPSWYRQAPGKEREFVSIIDGTGSTSYAASVKGRFTASQDKGKNIAYLQMNTLKPEDTAMYYCKASCVRGRAISEYWGQGTQVTVSS |
|  |  |  |  |  |  |  |  |  |  | 4.5 | 0.00041 | 91000 | 12 | 24-DR601 (SEQ ID NO. 249), anti-hIL27Ra Mono-Fc VHH (Fc fusion, Mono-Fc VHH ligand captured on a Protein A chip; not shown: mono-Fc part) QVQLQESGGGSVQAGGSLRLSCVASGYVSCDYFLPSWYRQAPGKEREFVSIIDGTGSTSYAASVKGRFTASQDKGKNIAYLQMNTLKPEDTAMYYCKASCVRGRAISEYWGQGTQVTVSS |
